This note sets out measurements from patent US20230106247A1 (L AND L BIO CO LTD NINGBO CHINA, published 2023).

B1: bispecific antibody LB501 (bispecific antibody, human IgG4 S228P, kappa)
light: DIQMTQSPSSLSASVGDRVTITCRASQDIRNYLNWYQQKPGKAPKLLIYFTSTLHSGVPSRFSGSGSGTDFTLTISSLQPEDFATYYCQQGNTLPWTFGGGTKVEIKGGGGSGGGGSGGGGSQVQLVQSGAEVKKPGASVKVSCKASGYNFNIYWINWVRQAPGQGLEWIGNIYPSSISTNYNEKFKTRATLTVDKSTSTVYMELSSLRSEDTAVYYCARSEGTYYGGRYEGDWFGYWGQGTLVTVSSGGGGSGGGGSGGGGSEIVLTQSPATLSLSPGERATLSCRASKGVSTSGYSYLHWYQQKPGQAPRLLIYLASYLESGVPARFSGSGSGTDFTLTISSLEPEDFAVYYCQHSRDLPLTFGGGTKVEIKRTVAAPSVFIFPPSDEQLKSGTASVVCLLNNFYPREAKVQWKVDNALQSGNSQESVTEQDSKDSTYSLSSTLTLSKADYEKHKVYACEVTHQGLSSPVTKSFNRGEC
heavy: not shown
notes: mab14-h16 scFv at the N-terminus of the Pem light chain
B2: bispecific antibody LB502 (bispecific antibody, human IgG4 S228P, kappa)
light: EIVLTQSPATLSLSPGERATLSCRASKGVSTSGYSYLHWYQQKPGQAPRLLIYLASYLESGVPARFSGSGSGTDFTLTISSLEPEDFAVYYCQHSRDLPLTFGGGTKVEIKRTVAAPSVFIFPPSDEQLKSGTASVVCLLNNFYPREAKVQWKVDNALQSGNSQESVTEQDSKDSTYSLSSTLTLSKADYEKHKVYACEVTHQGLSSPVTKSFNRGEC
heavy: not shown
notes: mab14-h16 scFv at the N-terminus of the Pem heavy chain
B3: bispecific antibody LB504 (bispecific antibody, human IgG4 S228P, kappa)
light: B2 light
heavy: not shown
notes: mab14-h16 scFv at the C-terminus of the Pem heavy chain
B4: bispecific antibody LB503 (bispecific antibody, human IgG4 S228P, kappa)
light: EIVLTQSPATLSLSPGERATLSCRASKGVSTSGYSYLHWYQQKPGQAPRLLIYLASYLESGVPARFSGSGSGTDFTLTISSLEPEDFAVYYCQHSRDLPLTFGGGTKVEIKRTVAAPSVFIFPPSDEQLKSGTASVVCLLNNFYPREAKVQWKVDNALQSGNSQESVTEQDSKDSTYSLSSTLTLSKADYEKHKVYACEVTHQGLSSPVTKSFNRGECAGGGGSGGGGSGGGGSQVQLVQSGAEVKKPGASVKVSCKASGYNFNIYWINWVRQAPGQGLEWIGNIYPSSISTNYNEKFKTRATLTVDKSTSTVYMELSSLRSEDTAVYYCARSEGTYYGGRYEGDWFGYWGQGTLVTVSSGGGGSGGGGSGGGGSDIQMTQSPSSLSASVGDRVTITCRASQDIRNYLNWYQQKPGKAPKLLIYFTSTLHSGVPSRFSGSGSGTDFTLTISSLQPEDFATYYCQQGNTLPWTFGGGTKVEIK
heavy: not shown
notes: mab14-h16 scFv at the C-terminus of the Pem light chain

The target of one test is T1, human PD-1 (recombinant, hFc/his tag) (human, UniProt Q15116 21-167).
T1 construct: not shown: hFc or his tag
Briefly: blocking ELISA, competitor PD-L1. The protocol: (§1) The antigens PD-1 and Sirpα expressed according to the method of Example 1 were diluted with a PBS buffer at pH7.4 to a concentration of 2 μg/mL, added into a 96-well ELISA plate (Corning, CLS3590-100EA) at a volume of 50 μL/well, and incubated at 37° C. for 2 hours. After the liquid was discarded, the wells were added with a blocking solution of 5% skimmed milk (Sangon Biotech (Shanghai) Co., Ltd., A600669-0250) formulated with PBS at 200 μL/well, and incubated at 37° C. for 3 hours for blocking. […] The plate was washed with PBST for 5 times, added with 50 μL/well of HRP-labeled secondary antibody (GenScript Biotechnology Co., Ltd., M00091) diluted at 1:1000, and incubated at 37° C. for 1 hour. The plated was washed with PBST for 5 times, then added with 50 μl/well of TMB chromogenic substrate (KPL, 52-00-03), incubated at room temperature for 5-10 min, added with 50 μl/well of 1 M H₂SO₄ to stop the reaction, and read by a […] Go microplate reader (ThermoFisher, 51119200) for the absorbance value at 450 nm, and then IC₅₀ was calculated according to the OD value.
Consider B1, for which the IC50 was 1.3 nM.
The same measure, in the same setting: the value for B2 was 2 nM; that for B3 was 1.09 nM; that for B4 was 1.45 nM.

In another test the target is T2, human Sirpα-V1-his (human, UniProt P78324 31-373).
T2 construct: range 31-373; Bought (Sino Biological 11612-H08H) or expressed in-house; also called hSirpα-V1; hSirpα-V1-his
Description: ELISA. As to the method: (§2) The self-expressed human PD-1, Sirpα and the like antigens of the present disclosure were diluted with a PBS buffer at pH7.4 to a concentration of 2 μg/mL according to different assays, and then added into a 96-well ELISA plate (Corning, CLS3590-100EA) at a volume of 50 μL/well, and placed in an incubator at 37° C. for 2 hours. After the liquid was discarded, the wells were added with a blocking solution of 5% skimmed milk (Sangon Biotech (Shanghai) Co., Ltd., A600669-0250) diluted with PBS at 200 μL/well, and incubated in an incubator at 37° C. for 3 hours, or placed overnight at 4° C. (for 16-18 hours) for blocking. The blocking solution was discarded, and the plate was washed with a PBST buffer (pH7.4 PBS containing 0.05% tween-20) for 5 times, then added with 50 μL/well of 5-fold serial dilution of the antibody to be tested in 1% BSA, and incubated at 37° C. for 1 hour. […] The plated was washed with PBST for 5 times, then added with 50 μL/well of TMB chromogenic substrate (KPL, 52-00-03), incubated at room temperature for 5-10 min, added with 50 μL/well of 1 M H₂SO₄ to stop the reaction, and read by a […] Go microplate reader (ThermoFisher, 51119200) for the absorbance value at 450 nm, and then EC₅₀ was calculated according to the OD value.
(§3) The aforementioned bispecific antibodies were cloned, expressed and purified according to the cloning, expression and purification methods of Example 1 of the present disclosure.
For orientation: An ELISA detects its analyte on a solid surface through an enzyme-linked reagent.
B1: a half-maximal effect (EC50) was put at 0.059 nM.
Molecule B2 returned an EC50 of 0.066 nM.
Same read-out and setting: the value for B3 was 0.055 nM; that for B4 was 0.075 nM.

Another test has as its target T1, human PD-1 (recombinant, hFc/his tag). Description: ELISA. The protocol: as §2, §3
For B1, the EC50 was 0.075 nM.
On the same count and under the same terms, in the case of B2 it was 0.074 nM.
Consider B3, for which the EC50 was determined as 0.061 nM.
On the same count and under the same terms, the value for B4 was 0.063 nM.

In a further test the target is T2, human Sirpα-V1-his. Description: blocking ELISA, competitor CD47-hFc. As to the method: as §1
On to B1, for which the half-maximal inhibitory concentration (IC50) stood at 5.42 nM.
Still for that read-out and setting: in the case of B2 it was 5.37 nM; in that of B3, 6.63 nM.
Same read-out and setting: the value for B4 was 7.63 nM.

The target in another test is T3, human Sirpα-V1-hFc (human, UniProt P78324 31-373).
T3 construct: range 31-373; also called hSirpα (dimer); hSirpα-V1-hFc (dimer); not shown: human IgG1 Fc region at the C-terminus
Description: blocking ELISA, competitor CD47-his. The protocol:
as §1
B1 displayed an IC50 of 2.55 nM.
On the same count and under the same terms, the value for B2 was 3.78 nM; that for B3 was 4.62 nM; that for B4 was 4.8 nM.

The IC50 is the concentration that inhibits the measured activity by half. As a reminder, the EC50 is the concentration needed to bring the measured effect to its halfway point.
